# Measurements: paper PMC4980433 (Molecular Cell, 2016)
# B1: TNKS SAM domain (1,018-1,093), wild type [human] / itself (parent)
# chain: ERKEGEVAGLDMNISQFLKSLGLEHLRDIFETEQITLDVLADMGHEELKEIGINAYGHRHKLIKGVERLLGGQQGT
# Variants of: B1
# Experiment: SEC-MALS
# Conditions: with itself; 0.5 mM; n = 2
row,screen value [kDa],Variant
1,9.3,ERKEGEVAGLDMNISQFLKSLGLEHLRDIFETEQITLDWLADMGHEELKEIGINAAGHRHKLIKGVERLLGGQQGT
2,10.6,ERKEGEVAGLDMNISQFLKSLGLEHLRDIFETEQITLDWLADMGHEELKEIGINAYGHRHKLIKGVERLLGGQQGT
3,10.4,ERKEGEVAGLDMNISQFLKSLGLEHLRDIFETEQITLDVLADMGHEELKEIGINAAGHRHKLIKGVERLLGGQQGT
